{
  "source": "paper PMC6774351",
  "about": "(Nature, 2019)",
  "proteins": {"B1": {"name": "engineered NEK7 dimer (artificial NEK7 dimer based on the PKR dimer structure) (enzyme)", "chain": "not shown"}},
  "molecular_target": "the molecule itself",
  "assay": "SEC",
  "data": [
    {"protein": "B1", "values": [
      {"measurement": "stoichiometry N", "value": 2}
    ]}
  ]
}
